According to patent US11906524B2, “Urea biosensors and uses thereof” (Duke University, priority 2015, dated 2024):
Read-outs that look alike come from different tables or passages of the source.

Experiments:
Assay type in all cases: binding
[1] = Temperature- and urea-dependent fluorescence landscapes of fluorescent conjugates (Roche LightCycler); set-up: key: y, yes; n, no; conditions: Acrylodan conjugate; fluorescent response to urea
Method in brief: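 Acrylodan or Badan was attached to single-cysteine csUBP7 mutants and fluorescence was recorded over 0–4.8 M urea in 20 mM KCl, 20 mM MOPS (pH 7.4), with temperature stepped by 1K. Urea Kd came from ratiometric single-site fits, and Kd values across temperatures were fit to the Gibbs-Helmholtz equation.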

[2] = Urea titration of emission intensity spectra (Nanodrop3300) with ratiometric analysis, singly labeled conjugates; set-up: key: m, monochromatic; d, dichromatic (i.e. spectral shape changes); 0, no change; conditions: urea response
Excerpt: (§1) Determination of emission intensity spectra.
(§2) Ratiometric analysis of urea binding. […] 2
(§3) For a single urea-binding site, the fractional saturation is given by
(§4) [formula] where [L] is the ligand (urea) concentration and Kd the dissociation constant, ^trueKd for ytrue.
(§5) [formula] where ^appIλ2 and ^satIλ2 are the emission intensities of the monochromatic signal at wavelength λ2 of the ligand-free and ligand-bound protein, respectively.

[3] = as above
Excerpt: as §1, §2, §3, §4, §5

[4] = ctUBP6 Acrylodan conjugate, urea, nb = no binding

Row | Kd ([3]; ctUBP6 Acrylodan conjugate, urea, nb = no binding, read-out: ^appKd) | Kd ([3]; ctUBP6 Acrylodan conjugate, urea, nb = no binding, read-out: ^trueKd) | Kd ([3]; ctUBP6 Badan conjugate, urea, ^d = noisy data and or bad fit, read-out: ^appKd) | Kd ([3]; ctUBP6 Badan conjugate, urea, ^d = noisy data and or bad fit, read-out: ^trueKd) | ^appKd [3, 4] | ^trueKd [3, 4] | Molecule | Response [1] | Shape ([2]; ctUBP6 Acrylodan conjugate) | Shape ([3]; ctUBP6 Badan conjugate, urea response) | Shape ([2]; ctUBP6 Badan conjugate)
1 | 79 mM | 84 mM | 69 mM | 95 mM | – | – | ctUBP6 S97C: ctUBP6 97C cysteine mutant (SEQ ID NO: 51), tested as Acrylodan and Badan conjugates (conjugate, Acrylodan or Badan conjugate; ctUBP6_97C (97C substitution mutant with signal peptide replaced with M and a GGSHHHHHH at C-terminus)) MVEEPVDNKPGTDTSAEDTIKVGILHSLSGTMAISEVSLKDAELMAIEEINQAGGLLGKKIEPVIEDGASDWPTFAEKAKKLLQNDKVATVFGCWTCASRKAVLPVFEENNGLLWYPVQYEGMESSPNIFYTGAAPNQQIVPAVEWLLENKGKRFFLLGSDYVFPRTANKIIKAQLSAIGGELIAEEYTPLGHTDYSTIVNKIKTAKPDVVFNTLNGDSNVAFFKQLKDAGITSEDITVCSVSVAEEEIRGIGAENIKGHLVSWNYYQTTDTPENKEFVEKYKSKYGSDRVTDDPIEAAYIAVHLWAEAVKKAGSFEVEKVKEAAKGLEFKAPEGLVKIEGENQHLWKPVRIGEVQEDGLIKEIWSTSEAVRPDPYLKTYDWAKGLSDGGSHHHHHH | n | m | m/d | –
2 | – | – | – | – | nb | nb | ctUBP6 A98C: ctUBP6 98C cysteine mutant (SEQ ID NO: 52), tested as Acrylodan and Badan conjugates (conjugate, Acrylodan or Badan conjugate; ctUBP6_98C (98C substitution mutant with signal peptide replaced with M and a GGSHHHHHH at C-terminus)) MVEEPVDNKPGTDTSAEDTIKVGILHSLSGTMAISEVSLKDAELMAIEEINQAGGLLGKKIEPVIEDGASDWPTFAEKAKKLLQNDKVATVFGCWTSCSRKAVLPVFEENNGLLWYPVQYEGMESSPNIFYTGAAPNQQIVPAVEWLLENKGKRFFLLGSDYVFPRTANKIIKAQLSAIGGELIAEEYTPLGHTDYSTIVNKIKTAKPDVVFNTLNGDSNVAFFKQLKDAGITSEDITVCSVSVAEEEIRGIGAENIKGHLVSWNYYQTTDTPENKEFVEKYKSKYGSDRVTDDPIEAAYIAVHLWAEAVKKAGSFEVEKVKEAAKGLEFKAPEGLVKIEGENQHLWKPVRIGEVQEDGLIKEIWSTSEAVRPDPYLKTYDWAKGLSDGGSHHHHHH | y | m | – | m
3 | – | – | – | – | – | – | ctUBP6 W95C: ctUBP6 95C cysteine mutant (SEQ ID NO: 49), tested as Acrylodan and Badan conjugates (conjugate, Acrylodan or Badan conjugate; ctUBP6_95C (95C substitution mutant with signal peptide replaced with M and a GGSHHHHHH at C-terminus)) MVEEPVDNKPGTDTSAEDTIKVGILHSLSGTMAISEVSLKDAELMAIEEINQAGGLLGKKIEPVIEDGASDWPTFAEKAKKLLQNDKVATVFGCCTSASRKAVLPVFEENNGLLWYPVQYEGMESSPNIFYTGAAPNQQIVPAVEWLLENKGKRFFLLGSDYVFPRTANKIIKAQLSAIGGELIAEEYTPLGHTDYSTIVNKIKTAKPDVVFNTLNGDSNVAFFKQLKDAGITSEDITVCSVSVAEEEIRGIGAENIKGHLVSWNYYQTTDTPENKEFVEKYKSKYGSDRVTDDPIEAAYIAVHLWAEAVKKAGSFEVEKVKEAAKGLEFKAPEGLVKIEGENQHLWKPVRIGEVQEDGLIKEIWSTSEAVRPDPYLKTYDWAKGLSDGGSHHHHHH | y | m | – | m
